Assay results reported in article PMC4149556.

Target: T1, Rev (HIV-1) (UniProt P04618)
T1 sequence: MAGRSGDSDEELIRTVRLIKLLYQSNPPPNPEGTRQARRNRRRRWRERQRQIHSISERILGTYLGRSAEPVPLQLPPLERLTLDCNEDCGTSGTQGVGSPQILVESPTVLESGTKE
Test: EMSA
Settings: native 4% PAGE; constant 32P-RRE RNA with 20, 40 or 80 ng Rev; buffer, salt, pH and temperature not given

In the case of “GAGAAGAGUGGUGCAGAGAGAAAAAAGAGCAGUGGGAACAAUAGGAGCUAUGUUCCUUGGGUCCUUGGGAGCAGCAGGAAGCACUAUGGGCGCAGCGUCAAUAACGCUGACGGUACAGGCCAGACAAUUACUGUCUGGUAUAGUGCAACAGCAAAACAACUUGCUGAGGGCUAUUGAGGCGCAACAACAUCUGUUGCAACUCACAGUCUGGGGCAUCAAGCAGCUCCAGGCGAGAGUCCUGGCUGUGGAAAGAUACCUAAGGGAUCAACAGCUCCUAGGGAUUUGGGGUUGCUCUGGAAGACUCAUUUGCACCACUGCUGUGCCUUGGAAUG [RREWT (40Q-45L)]”, the binding signal (% RNA shifted) is reported as 96.
